Source: paper doi:10.1101/2023.04.17.537135 (bioRxiv, 2023)

T1: His-tagged AHL10 S314D (phosphomimic) (Arabidopsis thaliana, UniProt O22812 1-351, S314D)
T1 sequence (looked up): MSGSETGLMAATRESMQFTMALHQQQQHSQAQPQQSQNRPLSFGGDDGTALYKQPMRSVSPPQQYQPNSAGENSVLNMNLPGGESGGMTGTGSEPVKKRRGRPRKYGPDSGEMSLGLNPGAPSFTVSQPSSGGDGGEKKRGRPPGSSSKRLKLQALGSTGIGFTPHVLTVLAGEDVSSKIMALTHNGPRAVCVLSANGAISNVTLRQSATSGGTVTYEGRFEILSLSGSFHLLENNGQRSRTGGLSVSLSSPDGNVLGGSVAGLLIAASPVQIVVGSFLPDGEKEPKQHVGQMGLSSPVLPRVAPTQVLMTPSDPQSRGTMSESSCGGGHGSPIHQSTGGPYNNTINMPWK

T2: His-tagged AHL10 S313D (phosphomimic) (Arabidopsis thaliana, UniProt O22812 1-351, S313D)
T2 sequence (looked up): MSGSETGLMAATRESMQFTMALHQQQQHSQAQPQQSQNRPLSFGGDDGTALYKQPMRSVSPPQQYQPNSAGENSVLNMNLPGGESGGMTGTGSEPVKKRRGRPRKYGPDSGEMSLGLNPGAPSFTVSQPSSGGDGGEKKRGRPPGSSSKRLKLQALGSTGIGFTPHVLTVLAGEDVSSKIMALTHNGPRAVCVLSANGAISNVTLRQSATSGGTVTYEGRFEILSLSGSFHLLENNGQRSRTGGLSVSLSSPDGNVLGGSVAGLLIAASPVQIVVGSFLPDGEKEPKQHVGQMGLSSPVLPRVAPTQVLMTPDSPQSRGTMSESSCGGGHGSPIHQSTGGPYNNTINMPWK

T3: His-tagged AHL10, non-mutated wild type (Arabidopsis thaliana, UniProt O22812 1-351)
T3 sequence (looked up): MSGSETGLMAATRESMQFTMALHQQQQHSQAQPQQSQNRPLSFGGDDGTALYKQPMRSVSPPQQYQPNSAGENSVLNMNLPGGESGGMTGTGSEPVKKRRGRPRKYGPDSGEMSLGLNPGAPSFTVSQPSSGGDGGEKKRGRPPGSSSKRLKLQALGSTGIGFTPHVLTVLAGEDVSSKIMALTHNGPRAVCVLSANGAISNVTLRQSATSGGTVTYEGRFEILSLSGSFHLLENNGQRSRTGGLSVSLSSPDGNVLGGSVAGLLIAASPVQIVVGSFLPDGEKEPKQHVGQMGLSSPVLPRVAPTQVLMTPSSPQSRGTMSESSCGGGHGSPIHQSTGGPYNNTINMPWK


Tests used:
Test in all cases: pull-down
[1] = target: T1, His-tagged AHL10 S314D (phosphomimic)
[2] = target: T2, His-tagged AHL10 S313D (phosphomimic)
[3] = target: T3, His-tagged AHL10, non-mutated wild type

binding result [1] | binding result [2] | binding result [3] | Binder
binds | binds | binds | GST-tagged RRP6L1 C-terminal 337 amino acids (domain or fragment, Arabidopsis thaliana, UniProt Q0WVE8 301-637, looked up) YKRSYDVCMQLYEKELWTRDSYLHVYGVQTGNLNAVQLSIVAGLCEWRDRIARADDESTGYVLPNKTLFDIAKEMPIVVAQLRRLLKSKLPYLERNFDAVISVIRRSMQNAAAFEPVVQSLKDRRPETVVEMNIEPKIEKTDTGASASSLSLEKVCVDDSKKQSSGFGVLPLKRKLESDKTVVEKNIEPKIEKTGTEASASSLSSKKVCVDDSKKQSSGFGVLLSKRKFESDNKVKEEVKVSKSKPDKVIIVVDDDDDDDDDESYEQSTKAADALDRVSETPSKGSPSLTQKPKTCNTEVIVLDDDDDSESREDEDMRRRSEKHRRFMNMKRGFLNI
binds | binds | binds | GST-tagged RRP6L1 N-terminal 300 amino acids (domain or fragment, Arabidopsis thaliana, UniProt Q0WVE8 1-300, looked up) MRFDDPMDEFKRNRKMEEDSKKVIDVKVAESDKGFAKFGKAEVPFHIPTLTKPQEEYKILVDNANNPFEHVLLEKSEDGLRFIHPLEELSVMDFVDRNLSEMRPVKPLPLEETPFKLVEEVKDLEDLAAALQSVEEFAVDLEHNQYRTFQGLTCLMQISTRTEDYIVDIFKLWDHIGPYLRELFKDPKKKKVIHGADRDIIWLQRDFGIYVCNLFDTGQASRVLKLERNSLEFLLKHYCGVAANKEYQKADWRIRPLPDVMKRYAREDTHYLLYIYDVMRMELHTMAKEDEQSDSPLVEV
